The supplement of paper PMC7877785
± gives the uncertainty stated by the source.

Assay: self-splicing fitness, log relative to wild type (ln ratio); higher = more splicing; Tetrahymena group I intron in knt gene, E. coli kanamycin selection, DiMSum; sequences stand for … in CUCUCU…GGAGGGAAAAGUUAUCAGGCAUGCACCUGGUAGCUAGUCUUUAAACCAAUAGAUUGCAUCGGUUUAAAAGGCAAGACCGUCAAAUUGCGGGAAAGGGGUCAACAGCCGUUCAGUACCAAGUCUCAGGGGAAACUUUGAGAUGGCCUUGCAAAGGGUAUGGUAAUAAGCUGACGGACAUGGUCCUAACCACGCAGCCAAGUCCUAAGUCAACAGAUCUUCUGUUGAUAUGGAUGCAGUUCACAGACUAAAUGUCGGUCGGGGAAGAUGUAUUCUUCUCAUAAGAUAUAGUCGGACCUCUCCUUAAUGGGAGCUAGCGGAUGAAGUGAUGCAACACUGGAGCCGCUGGGAACUAAUUUGUAUGCGAAAGUAUAUUGAUUAGUUUUGGAGUACUCGUGGUCG
In short: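 Six replicate transformations of E. coli BL21(DE3) with a pET-22b(+) library were grown overnight at 37°C or 30°C. The library randomised all eight P1ex-region intron nucleotides, the intron lying in the knt kanamycin-resistance gene, and plates were LB agar with or without 25 μg/mL kanamycin plus 100 μg/mL carbenicillin, 50 μM IPTG and 0.2% rhamnose. Pooled colonies were amplicon-sequenced on an Illumina HiSeq 2500, and fitness is the DiMSum error-weighted combination of wild-type-normalised replicate fold changes, kanamycin versus none.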

Row | Sequence | self-splicing fitness (ln) (30 °C) | self-splicing fitness (ln) (37 °C)
1 | AGGAAGCAAUAUUACGUACA | -1.08 ± 0.065 | -0.404 ± 0.088
2 | GCUCAGCAAUAUUACGGAAG | -2.23 ± 0.09 | -0.736 ± 0.11
3 | GGUAAGCAAUAUUACGUCUA | -0.569 ± 0.1 | -0.562 ± 0.1
4 | UGAAAGCAAUAUUACGACUG | 0.192 ± 0.1 | 0.249 ± 0.12
5 | ACCUAGCAAUAUUACGUUCC | -1.5 ± 0.086 | -0.914 ± 0.12
6 | UGCCAGCAAUAUUACGUCAC |  | -2.01 ± 0.29
7 | CGCUAGCAAUAUUACGUGGC | -2.89 ± 0.2 | -2.72 ± 0.2
8 | GCAUAGCAAUAUUACGGCAC | -1.15 ± 0.14 | -0.425 ± 0.15
9 | GGCCAGCAAUAUUACGCGGG | -3.29 ± 0.48 | -3.29 ± 0.37
10 | CUUUAGCAAUAUUACGAAAU | -2.94 ± 0.36 | -1.99 ± 0.41
11 | CGGGAGCAAUAUUACGUUUA | -3.47 ± 0.31 | -1.8 ± 0.28
12 | CCAGAGCAAUAUUACGUCUU | -3.89 ± 0.21 | -3.03 ± 0.2
13 | CAGUAGCAAUAUUACGUGUA | -4.62 ± 0.34 | -2.55 ± 0.19
14 | CCUGAGCAAUAUUACGUCCG | -3.25 ± 0.24 | -1.93 ± 0.33
15 | AGGCAGCAAUAUUACGGCAG | -1.29 ± 0.1 | -0.578 ± 0.12
16 | GCCCAGCAAUAUUACGACGU | 0.175 ± 0.053 | 0.441 ± 0.067
17 | AAGUAGCAAUAUUACGCACU | -0.686 ± 0.095 | -0.854 ± 0.14
18 | UGACAGCAAUAUUACGAUGA | -0.596 ± 0.068 | -0.119 ± 0.082
19 | AAGCAGCAAUAUUACGCCUC |  | -1.22 ± 0.4
20 | UGACAGCAAUAUUACGUUGA | -1.99 ± 0.094 | -1.9 ± 0.12
21 | UAGAAGCAAUAUUACGGAGG | -3.39 ± 0.3 | -0.889 ± 0.27
22 | CGCGAGCAAUAUUACGAAGG | -2.81 ± 0.24 | -2.64 ± 0.27
23 | GAGGAGCAAUAUUACGAACG | -2.65 ± 0.22 | -1.54 ± 0.25
24 | CUGUAGCAAUAUUACGGAUG | -3.23 ± 0.27 | -0.812 ± 0.18
25 | GGGUAGCAAUAUUACGAAUA | -0.00785 ± 0.18 | -0.878 ± 0.18
26 | UGAUAGCAAUAUUACGCGAA | -2.64 ± 0.44 | -1.49 ± 0.26

Row | Sequence | self-splicing fitness (ln) (30 °C) | self-splicing fitness (ln) (37 °C)
27 | UCCUAGCAAUAUUACGACUC | -2.94 ± 0.41 | -2.24 ± 0.36
28 | GCAUAGCAAUAUUACGACAU | -1.03 ± 0.013 | -0.295 ± 0.032
29 | CCCAAGCAAUAUUACGCCAA | -2.82 ± 0.16 | -2.47 ± 0.2
30 | ACAGAGCAAUAUUACGAAAU | -2.57 ± 0.45 | -1.01 ± 0.29
31 | GGAAAGCAAUAUUACGCUUU |  | -2.56 ± 0.3
32 | AGAGAGCAAUAUUACGGAUA | -2.48 ± 0.21 | -1.24 ± 0.21
33 | GGCAAGCAAUAUUACGUUCC | -1.43 ± 0.11 | -0.714 ± 0.14
34 | GAGGAGCAAUAUUACGAUUA | -1.73 ± 0.15 | -1.8 ± 0.13
35 | AGGGAGCAAUAUUACGAAAU | -3.18 ± 0.35 | -1.22 ± 0.24
36 | CGCAAGCAAUAUUACGAUUA | -2.6 ± 0.17 | -1.29 ± 0.15
37 | AUCGAGCAAUAUUACGGGAG | -3.52 ± 0.25 | -2.5 ± 0.29
38 | CUGUAGCAAUAUUACGGUAC |  | -2.59 ± 0.28
39 | AGGCAGCAAUAUUACGAGGC | -3.43 ± 0.29 | -1.67 ± 0.22
40 | UGAAAGCAAUAUUACGCAAG | -2.4 ± 0.15 | -2 ± 0.2
41 | UAUGAGCAAUAUUACGGCUA | -0.67 ± 0.14 | -1.16 ± 0.16
42 | UAAGAGCAAUAUUACGCAGC | -3.16 ± 0.22 | -3.49 ± 0.33
43 | ACGGAGCAAUAUUACGGAAC | -3.05 ± 0.27 | -3.62 ± 0.47
44 | GCAUAGCAAUAUUACGAGCC | -2.61 ± 0.2 | -2.49 ± 0.33
45 | AUUUAGCAAUAUUACGAAAA | -1.99 ± 0.26 | -1.01 ± 0.23
46 | GCACAGCAAUAUUACGAUUG | -2.27 ± 0.077 | -0.657 ± 0.083
47 | CUAAAGCAAUAUUACGUUCG | 0.342 ± 0.064 | 0.478 ± 0.082
48 | CAUUAGCAAUAUUACGCGAG | -1.52 ± 0.11 | -0.923 ± 0.095
49 | CUAAAGCAAUAUUACGACGA | -2.38 ± 0.13 | -0.919 ± 0.15
50 | AGAGAGCAAUAUUACGAUGC | -3.3 ± 0.48 | 
51 | UCUAAGCAAUAUUACGAUGG | -0.0699 ± 0.087 | 0.158 ± 0.11
52 | UCUGAGCAAUAUUACGGAGG | -3.34 ± 0.32 | -1.79 ± 0.27

Row | Sequence | self-splicing fitness (ln) (30 °C) | self-splicing fitness (ln) (37 °C)
53 | GCAGAGCAAUAUUACGCAAU |  | -1.61 ± 0.28
54 | GUAUAGCAAUAUUACGGCCU | -1.29 ± 0.12 | -0.582 ± 0.16
55 | UACGAGCAAUAUUACGUACA | -0.833 ± 0.27 | -1.22 ± 0.48
56 | AUCAAGCAAUAUUACGUACC | -0.82 ± 0.12 | -0.953 ± 0.17
57 | ACCCAGCAAUAUUACGAUUU | -0.881 ± 0.054 | 0.0888 ± 0.069
58 | AUCGAGCAAUAUUACGCGGU | -2.9 ± 0.27 | -1.4 ± 0.22
59 | UGCUAGCAAUAUUACGGGUC | -2.99 ± 0.16 | -2.62 ± 0.18
60 | UCGCAGCAAUAUUACGUGGG | -4.4 ± 0.36 | -2.53 ± 0.14
61 | AGUGAGCAAUAUUACGUGGA | -2.63 ± 0.32 | -1.49 ± 0.28
62 | ACCUAGCAAUAUUACGUGAG | -0.357 ± 0.048 | -0.0328 ± 0.061
63 | GGUCAGCAAUAUUACGGUCU | -1.28 ± 0.12 | -0.217 ± 0.13
64 | CCUUAGCAAUAUUACGCUGC | -2.81 ± 0.28 | 
65 | AAACAGCAAUAUUACGUACC | -1.52 ± 0.11 | -0.543 ± 0.12
66 | CUGAAGCAAUAUUACGCACC | -2.27 ± 0.34 | 
67 | UAAGAGCAAUAUUACGUCGG | -3.8 ± 0.29 | -2.25 ± 0.27
68 | GCUCAGCAAUAUUACGGUUC | -0.806 ± 0.065 | 0.0632 ± 0.071
69 | AAUUAGCAAUAUUACGUGAA | -2.4 ± 0.15 | -1.22 ± 0.17
70 | UGGGAGCAAUAUUACGCGAG | -1.25 ± 0.19 | -2.26 ± 0.27
71 | GCUGAGCAAUAUUACGACGC |  | -1.7 ± 0.42
72 | UACAAGCAAUAUUACGGUUC | -3.49 ± 0.15 | -1.73 ± 0.13
73 | AGGCAGCAAUAUUACGUAUC | -2.26 ± 0.16 | -0.296 ± 0.12
74 | GCACAGCAAUAUUACGAUAG | -1.91 ± 0.087 | -1.14 ± 0.1
75 | GGAAAGCAAUAUUACGGAAU | -2.55 ± 0.16 | -1.1 ± 0.15
76 | UACUAGCAAUAUUACGCUAC |  | -2.01 ± 0.34
77 | GGUGAGCAAUAUUACGCCGA | -2.06 ± 0.46 | -1.46 ± 0.48
78 | GGUCAGCAAUAUUACGUUCG | -0.853 ± 0.093 | 0.373 ± 0.13
